Consider 8 molecules from patent US7235648B1, “Yeast cells engineered to produce pheromone system protein surrogates, and uses therefor” (Cadus Technologies, Inc., priority 1993, dated 2007).

Ends that are not written are not given here.

Type in all cases: cell-based
The target of data set [1] is T1, wild-type human Mdr1 protein (Homo sapiens, UniProt P08183).
T1 construct: expressed in transfected cells; host or cells: S. cerevisiae WKK6 (CY20, ste6::HIS3), plasmid Cadus 1097
The data set can be described thus: Halo assay of a-factor transport by human Mdr1 in ste6 yeast on supersensitive MATα lawn. The settings on record: yeast deleted for STE6; halo size 1097>1079~1065>1019. As to the method:
A “halo” assay was performed by patching WKK6 cells containing the various Mdr1 constructs (1019, 1065, 1079 & 1097) onto a lawn of Matα cells which are supersensitive to a-factor (CY32=MATα leu2-3.112 trp1-289 ura3-52 his3*1 sst2*2 GAL+).

A further data set has as its target T2, STE3 (Saccharomyces cerevisiae, UniProt P06783).
T2 construct: fragment containing the entire coding region of STE3 flanked by the two newly introduced Spe I sites; expressed in transfected cells; host or cells: S. cerevisiae CY599 / CY2012 (ste2-STE3, chromosomal replacement with Cadus 1147)
T2 sequence (P06783 1-470): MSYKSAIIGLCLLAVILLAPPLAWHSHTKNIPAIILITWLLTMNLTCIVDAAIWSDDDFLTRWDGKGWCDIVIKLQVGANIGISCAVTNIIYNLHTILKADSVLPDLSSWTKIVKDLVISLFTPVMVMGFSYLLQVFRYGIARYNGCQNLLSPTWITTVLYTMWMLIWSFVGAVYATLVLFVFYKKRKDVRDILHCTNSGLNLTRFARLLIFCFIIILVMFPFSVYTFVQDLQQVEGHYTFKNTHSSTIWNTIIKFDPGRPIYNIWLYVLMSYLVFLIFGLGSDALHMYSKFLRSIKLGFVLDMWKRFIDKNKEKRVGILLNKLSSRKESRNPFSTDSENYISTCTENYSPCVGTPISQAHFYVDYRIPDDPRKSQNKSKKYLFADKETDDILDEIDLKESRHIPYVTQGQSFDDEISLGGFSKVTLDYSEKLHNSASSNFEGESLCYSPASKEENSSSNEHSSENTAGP
The data set is described as follows: Autocrine yeast (CY599/CY2012, ste2-STE3) growth on histidine-deficient medium plus aminotriazole, fus1-HIS3 readout. The settings on record: for ability of the peptide-encoding plasmid to confer the His phenotype on CY2012 (a-factor analogues): -His medium with 0.2 mM 3-aminotriazole, random a-factor library. The text has this:
A MATa strain designed for the expression of peptides in the context of MFA1 (i.e., using the MFA1 expression vector, Cadus 1239) has been constructed. The genotype of this strain, designated CY599, is […] mfa1 mfa2 far1-1 his3::fus1-HIS3 ste2-STE3 ura3 met1 ade1 leu2. In this strain, Cadus 1147 (see above) was used to replace STE2 with a hybrid gene in which the STE3 coding region is under the control of expression elements which normally drive the expression of STE2. As a result, the a-factor receptor replaces the α-factor receptor. The genes which encode a-factor are deleted from this strain: the far1 mutation abrogates the arrest of growth which normally follows stimulation of the pheromone response pathway; and the FUS1-HIS3 hybrid gene (integrated at the HIS3 locus) provides a selectable signal of activation of the pheromone response pathway. CY599 cells were expected to be capable of the transport of a-factor or a-factor-like peptides encoded by oligonucleotides expressed from Cadus 1239 by virtue of expression of the endogenous yeast transporter, Ste6.
Experiments were performed to test: 1. the ability of Cadus 1239 to function as a vector for the expression of peptides encoded by synthetic oligonucleotides; 2. the suitability of the oligonucleotides, as designed, to direct the export of farnesylated, carboxymethylated peptides through the pathway normally used by a-factor; 3. the capacity of CY599 to export these peptides; and 4. the ability of CY599 to respond to those peptides that stimulate the pheromone response pathway by growing on selective media. These tests were performed using an oligonucleotide which encodes the 12 amino acid a-factor; specifically, the degenerate sequence (NNN)n in the oligo-nucleotide cloned into Cadus 1239 (see above) (with n=12) encodes the peptide component of a-factor pheromone. CY599 was transformed with the resulting plasmid (Cadus 1220), and transformants selected on uracil-deficient medium were transferred to histidine-deficient medium supplemented with a range of concentrations of aminotriazole. […] Cadus 1220 and the designed oligonucleotide are competent to direct the expression and export of a farnesylated, carboxy-methylated peptide encoded by the (NNN)n sequence of the synthetic oligonucleotide; and 2. CY599 can, in an autocrine fashion, respond to a farnesylated, carboxy-methylated peptide that stimulates its pheromone response pathway, in this case signaling initiates as a-factor binds to STE3.
An optimized version of strain 6 (Example 2 above) was derived. This yeast strain, CY2012 (MATa ste2-STE3 far1Δ1442 mfa1::LEU2 mfa2-lacZ fus1-HIS3 tht1-1 ura3 leu2 his3 trp1 ste2), was constructed as follows. […]

For a further data set, the target named is T3, STE2 receptor (Saccharomyces cerevisiae, UniProt D6VTK4).
T3 construct: endogenous in cells; host or cells: S. cerevisiae MATa CY588 / CY1455
T3 sequence (D6VTK4 1-431): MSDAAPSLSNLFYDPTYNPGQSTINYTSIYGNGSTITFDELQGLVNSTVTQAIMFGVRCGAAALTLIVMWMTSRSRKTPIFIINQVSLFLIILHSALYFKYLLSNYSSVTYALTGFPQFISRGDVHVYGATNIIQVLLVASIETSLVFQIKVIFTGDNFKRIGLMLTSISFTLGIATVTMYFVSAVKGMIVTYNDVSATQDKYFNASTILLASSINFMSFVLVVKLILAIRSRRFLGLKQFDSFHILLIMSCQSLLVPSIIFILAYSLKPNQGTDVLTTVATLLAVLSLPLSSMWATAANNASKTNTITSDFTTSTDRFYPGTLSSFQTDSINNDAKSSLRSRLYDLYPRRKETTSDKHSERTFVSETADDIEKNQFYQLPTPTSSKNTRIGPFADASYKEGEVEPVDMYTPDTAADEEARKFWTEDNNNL
The data set can be described thus: Autocrine MATa yeast (CY588/CY1455) growth on histidine-deficient medium plus aminotriazole, fus1-HIS3 readout. The settings on record: -His medium with 1.0 mM or 2.5 mM aminotriazole.

Another data set has as its system WKK6 cells. The data set can be described thus: Valinomycin filter disk assay on lawns of ste6 yeast (WKK6) expressing human Mdr1 constructs. The settings on record: 5 mM valinomycin in DMSO on filter disk. How it is done:
CADUS plasmids 1065, 1079 and 1097 as well as a URA3 control plasmid (pRS426=1019) were transformed into a ura3^−, ste6^− strain of yeast (WKK6=CY20=MATa ura3-1 leu2-3.112 his3-11.15 trp1-1 ade2-1 can1-100 ste6::HIS3, obtained from Karl Kuchler). Individual transformants were grown overnight in SD-URA media and lawns containing approximately 5×10^6 cells were poured onto YPD plates in 3 ml of YPD top agar. Sterile filter disks were placed on the plates after the top agar had solidified, and […] of DMSO or 5 mM valinomycin in DMSO were spotted onto the filter disks.

T1 sequence (P08183 whole entry): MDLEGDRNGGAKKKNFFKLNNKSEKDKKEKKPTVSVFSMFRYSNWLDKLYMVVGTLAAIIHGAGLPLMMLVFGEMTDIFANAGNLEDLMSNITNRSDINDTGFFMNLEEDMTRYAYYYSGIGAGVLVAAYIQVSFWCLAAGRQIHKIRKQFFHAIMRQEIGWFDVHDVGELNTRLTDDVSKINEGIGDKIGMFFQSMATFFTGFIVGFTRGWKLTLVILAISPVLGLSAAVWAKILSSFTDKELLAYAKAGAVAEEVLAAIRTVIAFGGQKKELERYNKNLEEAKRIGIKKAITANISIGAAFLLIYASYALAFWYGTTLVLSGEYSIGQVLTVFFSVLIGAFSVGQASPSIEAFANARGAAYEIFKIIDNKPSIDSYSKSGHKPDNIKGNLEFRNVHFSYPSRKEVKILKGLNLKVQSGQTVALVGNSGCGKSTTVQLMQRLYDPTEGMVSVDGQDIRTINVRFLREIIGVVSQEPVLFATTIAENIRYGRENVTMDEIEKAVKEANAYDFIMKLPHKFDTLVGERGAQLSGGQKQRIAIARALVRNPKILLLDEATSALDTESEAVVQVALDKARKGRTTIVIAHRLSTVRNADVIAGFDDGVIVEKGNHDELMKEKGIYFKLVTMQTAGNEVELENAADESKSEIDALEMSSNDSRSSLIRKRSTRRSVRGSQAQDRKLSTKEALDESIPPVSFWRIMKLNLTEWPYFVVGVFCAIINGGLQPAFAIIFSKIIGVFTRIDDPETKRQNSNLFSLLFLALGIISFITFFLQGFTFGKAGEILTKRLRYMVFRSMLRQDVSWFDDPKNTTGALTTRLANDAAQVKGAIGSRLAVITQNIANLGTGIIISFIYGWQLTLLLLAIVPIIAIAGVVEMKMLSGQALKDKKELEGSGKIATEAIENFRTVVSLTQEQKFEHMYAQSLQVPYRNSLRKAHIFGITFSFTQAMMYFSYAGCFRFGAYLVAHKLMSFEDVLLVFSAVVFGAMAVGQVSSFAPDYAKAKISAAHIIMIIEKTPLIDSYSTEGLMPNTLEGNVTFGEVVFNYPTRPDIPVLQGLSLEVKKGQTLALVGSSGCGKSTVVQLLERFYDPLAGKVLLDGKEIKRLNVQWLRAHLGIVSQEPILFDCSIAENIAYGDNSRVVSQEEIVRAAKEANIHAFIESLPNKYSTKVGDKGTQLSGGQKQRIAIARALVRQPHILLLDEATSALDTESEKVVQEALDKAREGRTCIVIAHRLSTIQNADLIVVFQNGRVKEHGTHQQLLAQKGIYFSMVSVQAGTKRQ

Regarding “Tyr Ile Ile Lys Gly Val Phe Trp Asp Pro Ala (YIIKGVFWDPA; not fully specified (C-terminus); printed as Tyr Ile Ile Lys Gly Val Phe Trp Asp Pro Ala; also: C-terminal cysteine carboxymethylated) [a-factor, yeast dodecapeptide mating pheromone with C-terminal farnesylated, carboxymethylated cysteine, reference compound]”, in data set [1], the “transport by wild-type human Mdr1 protein” value is given as “can be transported”. Also, the “aminotriazole-resistant growth on histidine-deficient media (autocrine response, a-factor binds to STE3)” value in the data set with STE3 (CY599 transformed with Cadus 1220, range of aminotriazole concentrations) is given as “enhanced aminotriazole-resistant growth”.
Consider FKGQVRFVVLA [SEQ ID NO:55], for which the “ability of the peptide-encoding plasmid to confer the His phenotype on CY2012 (a-factor analogues)” value (“ability … (a-factor analogues)” below) with STE3 is “confer the His^− phenotype”.
Take WHWLELMPGQPLY [SEQ ID NO49]: the “agonist activity on the STE2 receptor, MFα-5.8 library” value (from here on “agonist activity on the STE2 receptor”) with STE2 receptor is recorded as “acted as agonists”.
For the molecule `CC(C)[C@@H]1NC(=O)[C@H](C)OC(=O)[C@@H](C(C)C)NC(=O)[C@@H](C(C)C)OC(=O)[C@H](C(C)C)NC(=O)[C@H](C)OC(=O)[C@@H](C(C)C)NC(=O)[C@@H](C(C)C)OC(=O)[C@H](C(C)C)NC(=O)[C@H](C)OC(=O)[C@@H](C(C)C)NC(=O)[C@@H](C(C)C)OC1=O` [valinomycin], the “resistance to valinomycin conferred by mutant Mdr1 (G185V)” value in the data set on WKK6 cells (WKK6 cells with plasmid 1079) was “weak resistance”. Moreover, in the data set with WKK6 cells (WKK6 cells with plasmid 1097), the “resistance to valinomycin conferred by wild type Mdr1” value is listed as “complete resistance”.
As to WHWMELRPGQPMY [SEQ ID NO:51], in the data set with STE2 receptor, the “agonist activity on the STE2 receptor” value is given as “acted as agonists”.
As for “Trp His Trp Leu Gln Leu Thr Pro Gly Gln Pro Met Tyr (WHWLQLTPGQPMY) [SEQ ID NO:47]”, the “agonist activity on the STE2 receptor” value with STE2 receptor is “acted as agonists”.
In the case of LMSPSFFFLPA [SEQ ID NO:57], the “ability … (a-factor analogues)” value in the data set with STE3 is reported as “confer the His^− phenotype”.
Turning to YALFVHFFDIP [SEQ ID NO:53], the “ability … (a-factor analogues)” value in the data set with STE3 is on record as “confer the His^− phenotype”.
